From the supplement of paper PMC9170038

System: MS2 coat protein
Test: apparent KD of MS2 coat protein; designed switch direction (-1 OFF switch, 1 ON switch): -1; higher = weaker reporter binding
Procedure, shortened: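 Three titration conditions were used: no input, 200 uM small-molecule ligand, and an oligonucleotide input. In each, SNAP-549-labelled MS2 coat protein was raised from 0.7 or 1.5 nM, doubling, to 3 µM over designed RNA switches transcribed on Illumina chips by stalled E. coli RNA polymerase. Curve fits of normalised cluster fluorescence gave values whose per-design median over clusters is the apparent KD.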

[1] = input ligand: microRNA oligo, concentration not stated
[2] = Eterna round: R95, input ligand: microRNA oligo, concentration not stated

Sequence	apparent KD of MS2 coat protein (input ligand: FMN 200 uM) [nM]	apparent KD of MS2 coat protein [1] [nM]	apparent KD of MS2 coat protein (input ligand: none) [nM]	also measured
AUUAAACAUGUAGGAUAUGCGUAGCAAAGCUAUGCAGAAGGACAUGAGGAUCACCCAUGUAAAAGCGUCUGAGUACAGAUGCAA [Mat - Exclusion NG 1 - Mod of JL - D88] (Eterna round: R96, puzzle: Exclusion NG 1)	936	40.5	47.6	–
AUUAACAUGUUGAUCAAAUACAUGAGGAUCACCCAUGUAUGCUUUUUGCUCGAUAAGAUCAACUAAUUAAUUAAUUA [StovNew/1-B] (Eterna round: R97, puzzle: Sensor, turn-off variant 1)	13.9	–	12.6	–
AUUAAUUGUCAGAUGGGUGACAUGAGGAUCACCCAUGUCACAAGCUUUUUGUUCGUCUUAUAAUUAACCCAUCUGAC [Stov1/11-B2] (Eterna round: R97, puzzle: Sensor, turn-off variant 1)	13.8	–	14.4	–
AUUACGUCAGGAUAUGCGUGUUAGACAUGUUUAACCUAAGAACAUGAGGAUCACCCAUGUAGAAGGGACGCUCA [Eternabot (L1) Solution 78] (Eterna round: R97, puzzle: Exclusion 2)	68.9	–	64.9	–
AUUAUAUAGACAGGAUAUAGAAUAUUAUUUUAACAUGAGGAUCACCCAUGUAACCUUAUGUGUAGCUAGAAGGGUCAUUUAUUA [Title] (Eterna round: R96, puzzle: Exclusion NG 2)	–	77.4	–	–
AUUAUAUAGAUAGGAUAUAGAAUAUUAUUUUAACAUGAGGAUCACCCAUGUAACCUUAUGUGUAGCUAGAAGGAUCAUUUAUUA [Title] (Eterna round: R96, puzzle: Exclusion NG 2)	–	69.5	–	–
AUUAUAUAGGAAGGAUAUAGAAUAUUAUUUUAACAUGAGGAUCACCCAUGUAACCUUAUGUGUAGCUAGAAGGUCCAUUUAUUA [Title] (Eterna round: R96, puzzle: Exclusion NG 2)	–	95.6	–	–
AUUAUGUAAGGAUAUCUUACAUGUGACUUCGGUCACUGUUAAGAGAAGGUACAUGAGGAUCACCCAUGUAUAAC [Ex4-3: 48] (puzzle: Exclusion 4)	–	–	–	apparent KD of MS2 coat protein [2]: 18.8 nM
AUUGAUAGCACAGGAUAUUGAGAUUUGAAUUGACAAGAAGGGUGUACAUGAGGAUCACCCAUGUAAUGGCUGCCUCGUUGAUUA [JR_ExcNG1_Sub005] (Eterna round: R96, puzzle: Exclusion NG 1)	–	45.6	–	–
AUUGGGCAAGCAUGAUCCCACAUGAGGAUCACCCAUGUGUUCGUCUUAUAGGCUGCUGAGGCUUUUGCCUCGGUGGC [LRO Sensor-off var1-02 loose mod of D91 from Mat747] (Eterna round: R97, puzzle: Sensor, turn-off variant 1)	706	–	875	–
AUUGUUUGAUACCUUUAAUACAUGAGGAUCACCCAUGUUAUCGAGGAUAUGUAGAAGAGAUGAGAACAGAAGGCGAAGUAAGAG [JR_ExcNG3_Sub096] (Eterna round: R96, puzzle: Exclusion NG 3)	21.3	11.1	16.5	–
AUUUACGGAGGAUAUACUUGAGGAUCACCCAAGUGGAGUCCCGUUUGGGCGGUAAAUAGUAGAAGGCCGUCCCA [jl-ex3-4.45 ViennaUCT mod] (Eterna round: R97, puzzle: Exclusion 3)	20.2	–	13.3	–
AUUUAGAGAGGAUAUAUAUUUUAAAACAUGAGGAUCACCCAUGUAAUUUUAUGGGAGAAAAUAGAAGGCUCAUUUA [JMFs Solution 1] (puzzle: Exclusion 5)	–	–	–	apparent KD of MS2 coat protein (Eterna round: R95, input ligand: FMN 200 uM): 114 nM; apparent KD of MS2 coat protein [2]: 205 nM; apparent KD of MS2 coat protein (Eterna round: R95, input ligand: none): 197 nM
